From article PMC12105683, “Generation of Conformation‐Specific Monoclonal Antibodies for Integral Membrane Proteins” (Current Protocols, 2025) come the findings set out here.

Holding throughout (settings): both partners purified
The target in one test is T1, GluA1 AMPAR (Rattus norvegicus, UniProt P19490-2).
T1 construct: GluA1 subunit of the AMPA receptor; source: HEK293S GnTI- cells/tSA201 cells, baculovirus transduction (pEG BacMam)
Description: BLI; Octet RED384; mAb (25 µg/ml) captured on anti-mouse IgG Fc capture (AMC) biosensors, iGluR as analyte; TBS with 0.075% LMNG or 1 mM DDM; association 900 s, dissociation 1800 s; 1:1 model, global fit. A general note: BLI is a label-free optical method that tracks binding on a fibre tip over time.

Test [1] concerns the target T2, TARP γ‐8 (Mus musculus, UniProt Q8VHW2).
T2 construct: TARP γ-8, AMPAR auxiliary subunit; also called transmembrane AMPAR regulatory protein γ-8; source: HEK293S GnTI- cells/tSA201 cells, baculovirus transduction (pEG BacMam)
Description: SEC; fluorescence-detection SEC (FSEC) shift assay; receptor incubated with mAbs individually and in combination at a 1:2 molar ratio; Superose 6 Increase 10/300 GL, 20 mM Tris, 150 mM NaCl, 0.075% LMNG.

In test [2] the target is T3, TARP γ‐2 (printed accession Q71RJ2 is rat; table …, UniProt Q71RJ2).
T3 construct: TARP γ-2 (stargazin), AMPAR auxiliary subunit; also called transmembrane AMPAR regulatory protein γ-2; source: HEK293S GnTI- cells/tSA201 cells, baculovirus transduction (pEG BacMam)
T3 sequence (Q71RJ2 whole entry, one chain of several): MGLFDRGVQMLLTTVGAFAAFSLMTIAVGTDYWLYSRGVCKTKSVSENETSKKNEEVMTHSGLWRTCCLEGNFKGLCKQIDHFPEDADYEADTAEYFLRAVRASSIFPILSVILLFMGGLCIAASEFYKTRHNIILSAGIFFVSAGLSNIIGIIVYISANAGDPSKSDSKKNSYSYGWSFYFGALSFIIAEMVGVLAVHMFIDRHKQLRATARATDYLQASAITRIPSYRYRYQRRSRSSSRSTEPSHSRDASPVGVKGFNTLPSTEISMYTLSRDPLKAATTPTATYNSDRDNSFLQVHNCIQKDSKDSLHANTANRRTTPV
As to the kind of experiment: BLI; Octet RED384; mAb (25 µg/ml) captured on anti-mouse IgG Fc capture (AMC) biosensors, iGluR as analyte; TBS with 0.075% LMNG or 1 mM DDM; association 900 s, dissociation 1800 s; 1:1 model, global fit.

The next test deals with T4, GluA2 AMPAR (Rattus norvegicus, UniProt P19491).
T4 construct: GluA2 subunit of the AMPA receptor; source: HEK293S GnTI- cells/tSA201 cells, baculovirus transduction (pEG BacMam)
The test is described as above.

Test [3] has as its target T3, TARP γ‐2. As to the kind of experiment: SEC; fluorescence-detection SEC (FSEC) shift assay; receptor incubated with mAbs individually and in combination at a 1:2 molar ratio; Superose 6 Increase 10/300 GL, 20 mM Tris, 150 mM NaCl, 0.075% LMNG.
Test [4] concerns the target T2, TARP γ‐8. As to the kind of experiment: BLI; Octet RED384; mAb (25 µg/ml) captured on anti-mouse IgG Fc capture (AMC) biosensors, iGluR as analyte; TBS with 0.075% LMNG or 1 mM DDM; association 900 s, dissociation 1800 s; 1:1 model, global fit.
The target of another test is T5, GluN3A (Rattus norvegicus, UniProt P35439;Q9R1M7).
T5 construct: also called GluN3A subunit; source: HEK293S GnTI- cells/tSA201 cells, baculovirus transduction (pEG BacMam)
The test is described as above.

Test [5] deals with T6, GFP-conjugated GluN1/GluN3A receptor (Rattus norvegicus, UniProt P35439;Q9R1M7).
T6 construct: GluN1 subunit of the NMDA receptor; GluN3A subunit of the NMDA receptor; also called GluN1/GluN3A NMDAR; GluN1/N3A NMDAR; source: HEK293S GnTI- cells/tSA201 cells, baculovirus transduction (pEG BacMam); copies: 2 + 2
As to the kind of experiment: SEC; fluorescence-detection SEC (FSEC) shift assay; receptor incubated with mAbs individually and in combination at a 1:2 molar ratio; Superose 6 Increase 10/300 GL, 20 mM Tris, 150 mM NaCl, 0.075% LMNG. In general terms: In gel filtration, larger molecules generally elute earlier.

In a further test the target is T7, GluA3 AMPAR (Rattus norvegicus, UniProt P19492).
T7 construct: GluA3 subunit of the AMPA receptor; source: HEK293S GnTI- cells/tSA201 cells, baculovirus transduction (pEG BacMam)
Description: BLI; Octet RED384; mAb (25 µg/ml) captured on anti-mouse IgG Fc capture (AMC) biosensors, iGluR as analyte; TBS with 0.075% LMNG or 1 mM DDM; association 900 s, dissociation 1800 s; 1:1 model, global fit.

Another test addresses T8, GluN1/GluN2A NMDAR (Rattus norvegicus, UniProt P35439;G3V9C5).
T8 construct: GluN1 subunit of the NMDA receptor; GluN2A subunit of the NMDA receptor; also called GluN1/N2A receptor; GluN1/N2A; source: HEK293S GnTI- cells/tSA201 cells, baculovirus transduction (pEG BacMam); copies: 2 + 2
As to the kind of experiment: SEC; fluorescence-detection SEC (FSEC) shift assay; receptor incubated with mAbs individually and in combination at a 1:2 molar ratio; Superose 6 Increase 10/300 GL, 20 mM Tris, 150 mM NaCl, 0.075% LMNG.

In another test the target is T9, GluN1 (Xenopus laevis, UniProt A0A1L8F5J9).
T9 construct: also called GluN1 subunit; source: HEK293S GnTI- cells/tSA201 cells, baculovirus transduction (pEG BacMam)
As to the kind of experiment: BLI; Octet RED384; mAb (25 µg/ml) captured on anti-mouse IgG Fc capture (AMC) biosensors, iGluR as analyte; TBS with 0.075% LMNG or 1 mM DDM; association 900 s, dissociation 1800 s; 1:1 model, global fit.

Another test addresses T10, GluN2A (Rattus norvegicus, UniProt P35439;G3V9C5).
T10 construct: also called GluN2A subunit; source: HEK293S GnTI- cells/tSA201 cells, baculovirus transduction (pEG BacMam)
The test is described as above.

B1: 11B8 mAb (antibody, V domains shown)
VH: EVKLLESGGGLVQPGGSLKLSCAASGFDFSEYWMSWVRQAPGKGLEWIGEINPDSSSIDYTPSLKDKIIISRDNAKKTLYLQLSKVRSEDTALYYCARPRGNYVVMDYWGQGTSVTVSS
VL: NIVLTQSPASLAVSLGQRATISCRASESVDSYGSSFVHWYQQKPGQPPKLLIFLASKLESGVPARFSGSGSRTDFTLTIDPVEADDAATYYCQQTNEDPYTFGGGTKLEIK
notes: IgG2b/kappa; source: mouse hybridoma, bioreactor flask; purified (Protein A/G agarose)
With B1, in the test with GluA1 AMPAR, the koff (usually the rate constant with which the complex falls apart) was below 1e-07 s⁻¹ and the kon – broadly, the rate constant with which the complex forms – turned out to be 123000 M⁻¹ s⁻¹.

B2: 4B2 mAb (antibody, V domains shown)
VH: EVQLQQSGAELVRSGASVKLSCTGSGFNIKDYYMHWVKQRPEQGLEWIGWIDPENGDTEYAPKFQGKATMTADTSSNTAYLHLSSLSSEDTAVYYCKGDYRYDDGGNYWGQGTSVTVSS
VL: DIQMTQTTSSLSASLGDRVTISCRASQDISNYLNWFQQKPDGTVKLLIYYTSRLHSGVPSRFSGSGSGTDYSLTINNLEQEDIATYFCQQGDSLPWTFGGGTKLEIK
notes: IgG2a/kappa; source: mouse hybridoma, bioreactor flask; purified (Protein A/G agarose)
As to B2, the binding result in the test with TARP γ‐8 [1] was “binds”. In the test with TARP γ‐2 [2], the dissociation constant (Kd) (commonly the constant that tells how readily two partners part at equilibrium) was 4.5 nM, the koff is 0.000119 s⁻¹ and the kon was found to be 50300 M⁻¹ s⁻¹.

B3: 15F1 mAb (antibody, V domains shown)
VH: QAQLKESGPGLVAPSQSLSITCTVSGFSLTNYGVHWVRQPPGKGLEWLGVIWAGGSTNYNSALMSRVSISKDNSKSQVFLKMNSLQTDDTVMYYCAREDYDYDWHFDVWGAGTTVTVSS
VL: EIQMTQTTSSLSASLGDRVTISCRASQDISNYLSWYQQKPDGTVKLLIYYTSRLHSGVPSRFSGSGSGIDYSLTINNLEQEDFATYFCQQGNTLPLTFGAGTKLELK
notes: IgG1/kappa; source: mouse hybridoma, bioreactor flask; purified (Protein A/G agarose)
In the test with GluA2 AMPAR, B3 yielded a dissociation constant (Kd) below 0.001 nM, an off-rate constant (koff) below 1e-07 s⁻¹ and a kon of 1.02e+06 M⁻¹ s⁻¹.

B4: 9B5 mAb (antibody, V domains shown)
VH: EVQLQQSGAELVRSGASVKLSCTTSGFNIKDYYMHWVKQRPEQGLEWIGWIDPENGDAEYAPKFQGKATMTADTSSNTAYLQLSSLTSEDTAVYYCNSGVAYWGQGTLVTVSA
VL: not shown
notes: as for B2
On to B4, for which the binding result in the test with TARP γ‐2 [3] was “binds”. In the test with TARP γ‐8 [4], this molecule yielded a dissociation constant (Kd) of 3.1 nM, a koff of 0.00103 s⁻¹ and an association rate constant (kon) of 45900 M⁻¹ s⁻¹.

B5: 5E3 mAb (antibody, V domains shown)
VH: QVQLQQPGAELVRPGASVKLSCKASGYSFTSYWMNWVKQRPGQGLEWIGMIHPSDSESRLNQKFKDKATLTVDKSSSTAYMQLRSPTSEDSAVYYCARSAYYRSFDYWGQGTTLTVSS
VL: DVLMTQTPLSLPVSLGDQASISCRSSQNIVHSNGNTYLEWYLQKPGQSPKLLIHKVSNRFSGVPDRFSGSGSGTDFTLKISRVEAEDLGVYYCFQGSHVPYTFGGGTKLEIK
notes: IgG1/kappa; source: purified (Protein A/G agarose)
In the test with GluN3A, B5 yielded an equilibrium dissociation constant (Kd) of 1.4 nM, an off-rate (koff) of 1.99e-05 s⁻¹ and an on-rate (kon) of 83700 M⁻¹ s⁻¹.

B6: 2D3 mAb (antibody, V domains shown)
VH: EVQLVESGGGLVKPGGSLKLSCAASGFAFSTYDMSWVRQTPEKRLEWVAYISGGGGTTYYPGTVKGRFTISRDNAKNTLYLQMSSLKSEDTAMYYCARQGYGYSMDYWGQGTSVTVSS
VL: DVVMTQTPLSLPVSLGDQASISCRSSQSLVHSNGDTYLLWYLQKPGQSPKLLIYKVSNRFSGVPDRFSGSGSGTDFTLKISRVEAEDLGVYFCSQSTHVPRTFGGGTKLEIK
notes: IgG2b/kappa; source: purified (Protein A/G agarose)
Regarding B6, the binding result in [5] was “binds”.

B7: 3G9 mAb (antibody, V domains shown)
VH: KVQLQQSGAGLVKPGASVKLSCKASGYTFTDYIIHWIKQRSGQGLEWIGWFYPGSGSIKYNEKFKDKATLTADYSSSTVYMELSRLTSEDSAVYFCARHEHRGYYGDYPMDYWGQGTSVTVSS
VL: DIVMSQSPSSLAVSVGEKVTMSCKSSQSLLYSNNQKNYLAWYQQKPGQSPKLLIYWASTRESGVPDRFTGSGSGTDFTLTISSVKAEDLAVYYCQQYYSYPPYTFGGGTKLEIK
notes: IgG2a/kappa; source: purified (Protein A/G agarose)
Take B7: in test [5], the binding result was “binds”.

B8: 5B2 mAb (antibody, V domains shown)
VH: EVQLQESGPSLVKPSQTLSLTCSVTGDSITSGYWNWIRKFPGNKLEYMGHISYRGSTYYNPSLKSRISITRDTSKNQYYLQLNSVTTEDTATYYCASRSYDEGFDSWGQGTTLTVSS
VL: NIVLTQSPASLAVSLGQRATISCRASESLDSYGNSFMHWYQQKPGQPPKLLIYLASNLESGVPARFSGSGSRTDFTLTIDPVEADDAATYYCQQNKEDLLTFGAGTKLELK
notes: as for B3
In the test with GluA3 AMPAR, B8 showed a Kd below 0.001 nM, an off-rate constant (koff) below 1e-07 s⁻¹ and a kon of 758000 M⁻¹ s⁻¹.

B9: 5F11 mAb (antibody, V domains shown)
VH: QGQMQQSGAELVKPGASVKLSCKTSGFSFSTSYINWLKQKPGQSLEWIAWIYAGTDGTSYNQKFTDKAQLTVDTSSSTAYMQFSSLTTDDSAIYYCAREGIYYGNYAGFTYWGQGTLVTVSA
VL: DIVMTQSPSSLAVTAGEKVTMRCKSSQSLLWSVNQNNYLSWYQQKQGQPPKLLIYGASIRESWVPDRFTGSGSGTDFTLTISNVHAEDLAVYYCQHNHGSFLPYTFGGGTKLEIK
notes: as for B3
Regarding B9, the binding result with GluN1/GluN2A NMDAR is recorded as “binds”. Besides, in the test with GluN1, the Kd was 0.43 nM, the off-rate (koff) is 6.19e-05 s⁻¹ and the kon came to 142000 M⁻¹ s⁻¹.

B10: 3D2 mAb (antibody, V domains shown)
VH: QVQLQQSGAELMKPGASVKISCKATGYTFRSYWIEWLKQRPGHGLEWIGEILPGSGRTNYNEKFKGKATITADTSSNTAYMQLSSLTSEDSAVYYCTRSRGTMITREFTYWGQGALVTVSA
VL: DIVLTQSPASLAVSLGQRATISCRASESVEYYGTTLMQWYQQKPGQPPKLLIYAASNVDSGVPARFSGSGSGTDFSLNIHPVEEDDIAMYFCQQSRKVPSTFGGGTKLEIK
notes: as for B3
In the test with GluN2A, B10 showed a koff below 1e-07 s⁻¹ and an on-rate constant (kon) of 1.85e+06 M⁻¹ s⁻¹.
